Laboratory results: patent publication US20080255035A1, “SPARC AND METHODS OF USE THEREOF” (Abraxis BioScience, Inc., priority 2007, published 2008)

What was measured:
[1] = tested on: HT29 colon cancer xenograft; assay: s.c. human HT29 colon cancer xenograft model, 5-FU with BIO1; format: in vivo, nude mice
Procedure: To further explore the chemotherapy sensitizing activity of SPARC, the athymic mouse tumor xenograft system was used to assess the sensitization of HT 29 human colocancer cells to 5-flurouracil (“5-FU”).
The cancer cells were implanted subcutaneously bilaterally in athymic mice. The mice were treated with saline or 25 mg/kg of 5-FU (see Table 4). Those animals that received SPARC were treated with wild type polypeptide (SEQ ID NO:1) at a dose of 4 mg/kg, 6 mg/kg or 8 mg/kg (see Table 4). The animals were monitored for survival and xenograft growth as measures of efficacy and body weight change as a measure of toxicity.

[2] = tested on: HUVEC; assay: Transport of paclitaxel across EC monolayers on transwell (HUVEC); format: cell-based, human; settings: cell type not specified
Procedure: A series of experiments were performed to evaluate binding and transport of paclitaxel by human umbilical vein endothelial cells (HUVEC) and human lung microvessel endothelial cells (HLMVEC) for ABX and TAX. Fluorescent paclitaxel (FP) was used as a probe and fluorescent ABX and TAX were formulated with FP to probe the binding and transport of paclitaxel across EC monolayers grown on a transwell apparatus.

[3] = tested on: Breast Cancer (MDA-MB-231); assay: Breast cancer xenograft, SPARC / Avastin / Abraxane; format: in vivo, athymic nude mice; settings: for tumor growth, addition to Abraxane compared to the other arms: breast cancer cells
Procedure: (§1) Human breast cancer (FIGS. 7 and 8) and colon cancer cells (FIGS. 9 and 10) were grown in athymic nude mice as xenografts as in EXAMPLES 12 and 13. There were 5 mice in each treatment group. Tumors were treated when they reached 200 mm^3. […] Both wild type (“BIO1”) and Q3 mutant SPARC (“BIO2”) were evaluated. The animals were monitored for survival and xenograft growth as measures of efficacy and body weight change as a measure of toxicity.

[4] = tested on: Colon Cancer (HT29); assay: Colon cancer xenograft, SPARC / Avastin / Abraxane; format: in vivo, athymic nude mice; settings: for tumor growth, single agent therapy versus saline control / tumor growth, addition to Abraxane compared to Abraxane alone: colon cancer cells
Procedure: as §1

[5] = tested on: HUVEC; assay: In vitro angiogenesis assay (TSC CellWorks Angiokit); format: cell-based, human; settings: 12 days in culture
Procedure: In this system, human umbilical vein endothelial cells (“HUVEC”) are co-cultured with other human cells (fibroblast) in collagen matrix. HUVEC cells initially form small islands within the culture matrix. HUVEC differentiate, proliferate and enter migratory phase during which they move through the matrix and form threadlike tubule structures (9-11 days). These gradually join up and form a network which resemble the capillary bed.
HUVEC cells grown in a three dimensional matrix were treated with various concentration of wild type SPARC polypeptide (SEQ ID NO: 1) or the Q3 mutant SPARC polypeptide (SEQ ID NO: 3). Capillary microtubules were visualized using immunostaining for CD31 after 12 days in culture. FIG. 6 depicts SPARC's concentration dependent effect on neoangiogensis showing characteristic examples of the capillary microtubular density in the absence of SPARC (0 μg/ml), wild type or Q3 SPARC at 10 μg/ml, and wild type or Q3 SPARC at 100 μg/ml.

Molecule: O=c1[nH]cc(F)c(=O)[nH]1 [5-FU, 5-flurouracil]
- % BWLmax ([1]; 5-FU 25 mg/kg IP): −5.8%
- TGI (%) ([1]; 5-FU 25 mg/kg IP, post-treatment day 25): 79.8%

Molecule: CCN1C(=O)C=CC1=O [NEM]
- effect on transport of paclitaxel from ABX across endothelial monolayers [2]: inhibited

Molecule: Avastin: angiogenesis inhibitor [reference compound]
- Tumor growth inhibition (TGI) relative to Abraxane alone ([3]; MDA-MB-231, SPARC 150 μg/kg 2×/week, Avastin 4 mg/kg twice per week, Abraxane 15 mg/kg every fourth day ×3): 16%
- Tumor growth inhibition (TGI) relative to Abraxane alone ([4]; HT29, SPARC 150 μg/kg 2×/week, Avastin 4 mg/kg twice per week, Abraxane 15 mg/kg every fourth day ×3): <0%
- tumor growth, single agent therapy versus saline control [4]: no better than the saline control treatments

Molecule: beta-methyl cyclodextrin [BMC]
- effect on transport of paclitaxel from ABX across endothelial monolayers [2]: inhibited

B1: BIO2: Q3 mutant SPARC (SEQ ID NO: 3), deletion of the third glutamine in mature human SPARC (protein, listed as Homo sapiens)
chain: APQEALPDETEVVEETVAEVTEVSVGANPVQVEVGEFDDGAEETEEEVVAENPCQNHHCKHGKVCELDENNTPMCVCQDPTSCPAPIGEFEKVCSNDNKTFDSSCHFFATKCTLEGTKKGHKLHLDYIGPCKYIPPCLDSELTEFPLRMRDWLKNVLVTLYERDEDNNLLTEKQKLRVKKIHENEKRLEAGDHPVELLARDFEKNYNMYIFPVHWQFGQLDQHPIDGYLSHTELAPLRAPLIPMEHCTTRFFETCDLDNDKYIALDEWAGCFGIKQKDIDKDLVI
- tumor growth, addition to Abraxane compared to the other arms [3]: similar, though blunted, results
- tumor growth, addition to Abraxane compared to Abraxane alone [4]: fails to slow tumor growth beyond that achieved with Abraxane®

B2: BIO1: wild type SPARC polypeptide (SEQ ID NO: 1) (protein, listed as Homo sapiens)
chain: APQQEALPDETEVVEETVAEVTEVSVGANPVQVEVGEFDDGAEETEEEVVAENPCQNHHCKHGKVCELDENNTPMCVCQDPTSCPAPIGEFEKVCSNDNKTFDSSCHFFATKCTLEGTKKGHKLHLDYIGPCKYIPPCLDSELTEFPLRMRDWLKNVLVTLYERDEDNNLLTEKQKLRVKKIHENEKRLEAGDHPVELLARDFEKNYNMYIFPVHWQFGQLDQHPIDGYLSHTELAPLRAPLIPMEHCTTRFFETCDLDNDKYIALDEWAGCFGIKQKDIDKDLVI
- sensitization of the cancer cells to 5-FU ([1]; any of the SPARC concentrations used (4, 6, 8 mg/kg)): failed to sensitize

B3: SPARC: Secreted Protein, Acidic, Rich in Cysteines, also known as osteonectin; wild type or Q3 not told apart at the place (protein)
chain: APQQEALPDETEVVEETVAEVTEVSVGANPVQVEVGEFDDGAEETEEEVVAENPCQNHHCKHGKVCELDENNTPMCVCQDPTSCPAPIGEFEKVCSNDNKTFDSSCHFFATKCTLEGTKKGHKLHLDYIGPCKYIPPCLDSELTEFPLRMRDWLKNVLVTLYERDEDNNLLTEKQKLRVKKIHENEKRLEAGDHPVELLARDFEKNYNMYIFPVHWQFGQLDQHPIDGYLSHTELAPLRAPLIPMEHCTTRFFETCDLDNDKYIALDEWAGCFGIKQKDIDKDLVI
- angiogenic activity (capillary microtubule density, CD31) ([5]; 10 μg/ml): proangiogenic
- angiogenic activity (capillary microtubule density, CD31) ([5]; 100 μg/ml): inhibits angiogenesis
- tumor growth, addition to Abraxane compared to the other arms [3]: marked decreases in tumor growth
- tumor growth, addition to Abraxane compared to Abraxane alone [4]: further decreases in tumor growth
- tumor growth, single agent therapy versus saline control [4]: no better than the saline control treatments
